In patent US20210147536A1 (MAB VENTURE BIOPHARM, published 2021):

Assays:
[1] = molecular target: T1, human LAG-3 on the cell surface (human, UniProt P18627 23-525); assay: flow cytometry on activated human CD4+ T cells expressing LAG-3, PE anti-human antibody
T1 construct: whole, on cells; also called cells expressing the human LAG-3
T1 sequence (looked up): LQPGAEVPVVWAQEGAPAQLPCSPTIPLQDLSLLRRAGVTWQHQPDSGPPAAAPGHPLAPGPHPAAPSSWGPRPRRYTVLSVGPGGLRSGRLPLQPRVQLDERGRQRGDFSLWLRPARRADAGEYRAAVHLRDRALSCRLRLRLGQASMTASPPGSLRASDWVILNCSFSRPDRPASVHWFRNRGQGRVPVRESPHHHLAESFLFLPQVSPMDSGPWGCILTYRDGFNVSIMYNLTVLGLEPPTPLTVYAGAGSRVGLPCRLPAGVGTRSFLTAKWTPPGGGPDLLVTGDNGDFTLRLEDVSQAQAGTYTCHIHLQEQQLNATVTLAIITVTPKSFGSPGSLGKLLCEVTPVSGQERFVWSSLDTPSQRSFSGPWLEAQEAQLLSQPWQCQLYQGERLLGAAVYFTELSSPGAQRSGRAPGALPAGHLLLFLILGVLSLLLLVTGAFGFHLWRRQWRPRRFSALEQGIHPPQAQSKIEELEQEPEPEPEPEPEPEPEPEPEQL

[2] = molecular target: T2, human LAG-3-mFc recombinant fusion protein (human); assay: flow cytometry, blocking of hLAG-3-mFc (10 µg/ml) binding to MHC class II on Daudi cells
T2 construct: also called hLAG-3-mFc
T2 chain: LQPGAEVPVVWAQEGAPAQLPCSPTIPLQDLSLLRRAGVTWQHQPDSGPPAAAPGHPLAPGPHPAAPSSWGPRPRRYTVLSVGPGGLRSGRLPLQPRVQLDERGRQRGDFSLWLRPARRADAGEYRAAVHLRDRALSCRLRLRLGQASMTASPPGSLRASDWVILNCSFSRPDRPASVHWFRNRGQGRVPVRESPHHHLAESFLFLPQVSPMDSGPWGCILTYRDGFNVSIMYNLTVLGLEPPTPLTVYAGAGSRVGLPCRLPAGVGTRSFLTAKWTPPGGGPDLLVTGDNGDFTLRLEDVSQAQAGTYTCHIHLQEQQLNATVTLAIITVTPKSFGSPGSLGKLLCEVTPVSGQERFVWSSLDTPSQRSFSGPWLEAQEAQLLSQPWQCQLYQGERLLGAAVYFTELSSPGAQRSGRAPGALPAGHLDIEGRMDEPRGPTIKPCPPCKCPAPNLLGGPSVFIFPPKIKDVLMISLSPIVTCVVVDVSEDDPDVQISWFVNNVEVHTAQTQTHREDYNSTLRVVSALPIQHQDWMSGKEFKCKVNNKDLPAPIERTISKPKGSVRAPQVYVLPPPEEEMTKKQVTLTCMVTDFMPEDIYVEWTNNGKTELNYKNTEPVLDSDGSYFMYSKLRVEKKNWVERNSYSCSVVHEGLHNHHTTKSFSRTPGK

[3] = molecular target: T1, human LAG-3 on the cell surface; assay: cell-based or functional assay
[4] = molecular target: T3, human LAG-3-6*His tag recombinant fusion protein (human, UniProt P18627 23-450, biotin-labelled in panning and in Example 9); assay: ELISA as in Example 4 (antibody coated, human LAG-3-6*His titrated); N = 5
T3 construct: Bought protein; also called hLAG-3-6*his tag recombinant protein; human LAG-3-his tag recombinant fusion protein
T3 sequence: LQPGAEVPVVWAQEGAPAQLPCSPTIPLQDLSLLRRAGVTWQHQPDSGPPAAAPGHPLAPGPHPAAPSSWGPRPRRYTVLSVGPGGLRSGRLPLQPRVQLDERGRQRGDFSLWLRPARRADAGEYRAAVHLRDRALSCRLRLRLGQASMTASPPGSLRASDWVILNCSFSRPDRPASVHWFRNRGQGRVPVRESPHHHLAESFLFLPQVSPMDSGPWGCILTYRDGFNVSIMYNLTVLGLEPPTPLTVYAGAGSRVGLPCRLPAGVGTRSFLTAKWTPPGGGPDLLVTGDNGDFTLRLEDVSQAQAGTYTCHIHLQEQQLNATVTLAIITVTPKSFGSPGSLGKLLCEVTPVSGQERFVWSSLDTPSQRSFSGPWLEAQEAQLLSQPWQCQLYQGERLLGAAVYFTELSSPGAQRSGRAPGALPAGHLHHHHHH

[5] = molecular target: T4, recombinant mouse LAG-3-6*His tag fusion protein (mouse, UniProt Q61790 23-442); assay: ELISA, antibody coated at 1 µg/ml, mouse LAG-3-6*His titrated, anti-His HRP
T4 construct: made in Expi293 cells from the mouse LAG-3 cDNA; also called mouse LAG-3 antigen
T4 sequence: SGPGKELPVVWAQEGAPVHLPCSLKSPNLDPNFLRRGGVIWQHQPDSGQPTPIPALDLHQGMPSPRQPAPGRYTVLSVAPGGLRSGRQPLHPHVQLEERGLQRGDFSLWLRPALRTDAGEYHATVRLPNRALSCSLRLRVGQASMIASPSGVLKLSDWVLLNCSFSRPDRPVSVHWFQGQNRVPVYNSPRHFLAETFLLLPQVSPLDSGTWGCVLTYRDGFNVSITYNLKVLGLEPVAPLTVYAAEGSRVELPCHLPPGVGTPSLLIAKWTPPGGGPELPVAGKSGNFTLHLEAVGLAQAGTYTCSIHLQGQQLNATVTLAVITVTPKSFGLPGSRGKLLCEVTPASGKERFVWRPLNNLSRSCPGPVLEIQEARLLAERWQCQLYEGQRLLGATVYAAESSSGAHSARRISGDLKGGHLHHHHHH

[6] = molecular target: T3, human LAG-3-6*His tag recombinant …; assay: BLI Octet Red96, MV705-3 on AHC sensor, human LAG-3-6*His at 250 nM, 1:1 model
[7] = molecular target: T1, human LAG-3 on the cell surface; assay: cell-based or functional assay; remark: listed apart in the source
[8] = molecular target: T3, human LAG-3-6*His tag recombinant …; assay: BLI (Octet Red96), biotinylated hLAG-3-6*his on SA biosensor, antibody 100 µg/mL in solution, 1:2 binding model
[9] = molecular target: T1, human LAG-3 on the cell surface; assay: flow cytometry on cells expressing the human LAG-3, PE anti-human IgG; N = 4

B1: anti-human LAG-3 full human monoclonal antibody MV705-3 (antibody, human IgG4, V domains shown)
VH: EVQLLESGAEVKKPGASVKVSCKASGYTFTSYGISWVRQAPGQGLEWMGWISAYNGNTNYAQKLQGRVTMTTDTSTSTAYMELRSLRSDDTAVYYCARDGWWELLRPDDAFDIWGQGTTVTVSS
VL: QLVLTQSPSVSVSPGQTASITCSGDKLGDKYAYWYQQKPGQAPVLVIYYDSDRPSGIPERFSGSNSGNTATLTISRVEAGDEADYYCQVWDSSSDQVVFGGGTQLTVLG
notes: Full IgG4 with lambda light chain; also called MV705-3(DD + DD)
[1]
  EC50: 0.0019 µg/mL
[2]
  IC50: 2.8 µg/mL
[3]
  EC50 of NFAT reporter gene induction (bio-glo luciferase), LAG3/NFAT Reporter-Jurkat + Raji cells + superantigen: 0.04 µg/mL
[4]
  EC50: 0.039 µg/mL
[5]
  EC50: 2.6 µg/mL
[6]
  koff: < 1e-07 s⁻¹
  kon: 13800 M⁻¹ s⁻¹
[7]
  EC50, ability to activate T cells in vitro (LAG3/NFAT Reporter-Jurkat): 0.13 µg/mL
[8]
  Kd: 3.04 nM
  koff: 0.000373 s⁻¹
  kon: 122000 M⁻¹ s⁻¹
[9]
  EC50: 0.0023 µg/mL
